The target of assay [1] is CSF-1R ECD (R&D-Systems 329-MR or in-house subcloned pCMV-presS-HisAvitag-hCSF-1R-ECD) (human) (UniProt P07333). Description: SPR cross-competition, 25 C; second antibody on CSF-1R held by captured Antibody 1; competitor <CSF-1R>7H5.2G10 (Antibody 1).
Assay [2] has the same target. The assay can be described thus: SPR (BIACORE A100), 35 C, antibody captured, CSF-1R ECD in solution. A general note: SPR reads the build-up and loss of mass on a sensor chip optically.
Assay [3] deals with T1, full-length wildtype CSF-1R (wt CSF-1R) (human, UniProt P07333 20-972). Description: cell-based or functional assay.
In assay [4] the target is CSF-1R ECD (R&D-Systems 329-MR or in-house subcloned pCMV-presS-HisAvitag-hCSF-1R-ECD) (human) (UniProt P07333). The assay can be described thus: SPR cross-competition, 25 C; second antibody on CSF-1R held by captured Antibody 1; competitor SC-02, clone 2-4A5 (Antibody 1).
The target in assay [5] is huCSF-1R-huFc chimera (soluble extracellular domain) (human) (UniProt P07333). The assay can be described thus: competition ELISA, inhibition of CSF-1 binding to immobilized huCSF-1R-huFc. On the technique in general: ELISA stands for enzyme-linked immunosorbent assay.
For assay [6], the target named is CSF-1R ECD (R&D-Systems 329-MR or in-house subcloned pCMV-presS-HisAvitag-hCSF-1R-ECD) (human) (UniProt P07333). Description: SPR cross-competition, 25 C; second antibody on CSF-1R held by captured Antibody 1; competitor <CSF-1R>10A4.1G11 (Antibody 1).
Assay [7] addresses mutant CSF-1R L301S Y969F (human, UniProt P07333 20-972). Description: cell-based or functional assay.
Assay [8] deals with T2, huCSF-1R-huFc chimera (soluble extracellular domain) (human, UniProt P07333 20-517).
T2 construct: also called huCSF-1R ECDhuFc chimera; not shown: human Fc
The assay can be described thus: competition ELISA, inhibition of CSF-1 binding to immobilized huCSF-1R-huFc. Here is the method: At the beginning, plates were coated with […] goat F(ab′)₂ biotinylated anti Fcγ (Jackson ImmunoResearch., Cat. No. 109-006-170) for 1 hour (h).
Thereafter the wells were blocked with PBS supplemented with 0.2% Tween®-20 and 2% BSA (Roche Diagnostics GmbH, DE) for 0.5 h. 75 ng/ml of huCSF-1R-huFc chimera (soluble extracellular domain) was immobilized to plate for 1 h. Then dilutions of purified antibodies in PBS/0.05% Tween20/0.5% BSA were incubated for 1 h. After adding a mixture of 3 ng/ml CSF-1 (Biomol, DE, Cat. No. 60530), 50 ng/ml biotinylated anti CSF-1 clone BAF216 (R&D Systems, UK) and 1:5000 diluted streptavidin HRP (Roche Diagnostics GmbH, DE, Cat. No. 11089153001) for 1 h the plates were washed 6 times with PBST. Anti CSF-IR SC-02, clone 2-4A5 (Santa Cruz Biotechnology, US), which inhibits the ligand-receptor interaction, was used as positive control. Plates were developed with freshly prepared BM Blue® POD substrate solution (BM Blue®: 3,3″-5,5″-Tetramethylbenzidine, Roche Diagnostics GmbH, DE, Cat. No. 11484281001) for 30 minutes at RT. Absorbance was measured at 370 nm. […]

The target of assay [9] is T1, full-length wildtype CSF-1R (wt CSF-1R). The assay can be described thus: cell-based or functional assay. This is another data set of the same source.
Assay [10] addresses T3, CSF-1R ECD (R&D-Systems 329-MR or in-house subcloned pCMV-presS-HisAvitag-hCSF-1R-ECD) (human, UniProt P07333 20-517).
T3 construct: also called CSF-1R (R&D-Systems Cat. No. 329-MR)
The assay can be described thus: SPR (BIACORE A100), 35 C, antibody captured, CSF-1R ECD in solution. Here is the method:
For affinity measurements 36 μg/ml anti mouse Fcγ antibodies (from goat, Jackson Immuno Reasearch JIR115-005-071) have been coupled to the chip surface for capturing the antibodies against CSF-1R. CSF-1R ECD (R&D-Systems 329-MR or in-house subcloned pCMV-presS-H isAvitag-hCSF-1R-ECD were added in various concentrations in solution. Association was measured by an CSF-1R-injection of 1.5 minutes at 35° C.; dissociation was measured by washing the chip surface with buffer for 10 minutes at 35° C. Anti CSF-IR SC-02, clone 2-4A5 (Santa Cruz Biotechnology, US; see also Sherr, C. J., et al., Cell 41 (1985) 665-676), which inhibits the ligand-receptor interaction, was used as reference control.

In assay [11] the target is T1, full-length wildtype CSF-1R (wt CSF-1R). The assay can be described thus: cell-based or functional assay. This is another data set of the same source.
The target is the same in assay [12]. Description: cell-based or functional assay. The source holds these as a separate data set.

In general, Kd refers to a measure of binding affinity in units of concentration. The low end stands for tighter binding, the high end for weaker binding. What is called koff is a measure of how fast the partners let go of each other. Read a high koff as fast dissociation. Usually kon stands for the second-order rate constant of association. What is called IC50 is the midpoint of a concentration-inhibition curve. Read a low IC50 as higher potency.

Where two headings read alike, the source gives them in different places.

Sequence of CSF-1R ECD (R&D-Systems 329-MR or in-house subcloned pCMV-presS-HisAvitag-hCSF-1R-ECD) (human) (P07333 20-517 limits assumed): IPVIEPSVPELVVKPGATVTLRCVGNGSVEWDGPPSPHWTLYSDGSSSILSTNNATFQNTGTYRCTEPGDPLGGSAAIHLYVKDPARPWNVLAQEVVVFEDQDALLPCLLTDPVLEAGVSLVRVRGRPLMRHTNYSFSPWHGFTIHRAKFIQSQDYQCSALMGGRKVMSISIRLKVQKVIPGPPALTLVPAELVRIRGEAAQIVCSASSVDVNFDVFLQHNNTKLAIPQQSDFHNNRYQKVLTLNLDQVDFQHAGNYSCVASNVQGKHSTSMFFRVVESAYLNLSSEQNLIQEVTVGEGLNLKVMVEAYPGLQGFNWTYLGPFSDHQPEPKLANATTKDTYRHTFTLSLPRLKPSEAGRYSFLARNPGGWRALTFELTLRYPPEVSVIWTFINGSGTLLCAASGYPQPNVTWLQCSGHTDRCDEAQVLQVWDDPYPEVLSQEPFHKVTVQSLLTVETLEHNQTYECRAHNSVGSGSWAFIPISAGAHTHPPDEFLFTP
T3 sequence (P07333 20-517 limits assumed): as above
T2 sequence (P07333 20-517, change not shown): as the sequence (P07333 20-517 limits assumed) above
Sequence of mutant CSF-1R L301S Y969F (P07333 20-972 L301S/Y969F limits assumed): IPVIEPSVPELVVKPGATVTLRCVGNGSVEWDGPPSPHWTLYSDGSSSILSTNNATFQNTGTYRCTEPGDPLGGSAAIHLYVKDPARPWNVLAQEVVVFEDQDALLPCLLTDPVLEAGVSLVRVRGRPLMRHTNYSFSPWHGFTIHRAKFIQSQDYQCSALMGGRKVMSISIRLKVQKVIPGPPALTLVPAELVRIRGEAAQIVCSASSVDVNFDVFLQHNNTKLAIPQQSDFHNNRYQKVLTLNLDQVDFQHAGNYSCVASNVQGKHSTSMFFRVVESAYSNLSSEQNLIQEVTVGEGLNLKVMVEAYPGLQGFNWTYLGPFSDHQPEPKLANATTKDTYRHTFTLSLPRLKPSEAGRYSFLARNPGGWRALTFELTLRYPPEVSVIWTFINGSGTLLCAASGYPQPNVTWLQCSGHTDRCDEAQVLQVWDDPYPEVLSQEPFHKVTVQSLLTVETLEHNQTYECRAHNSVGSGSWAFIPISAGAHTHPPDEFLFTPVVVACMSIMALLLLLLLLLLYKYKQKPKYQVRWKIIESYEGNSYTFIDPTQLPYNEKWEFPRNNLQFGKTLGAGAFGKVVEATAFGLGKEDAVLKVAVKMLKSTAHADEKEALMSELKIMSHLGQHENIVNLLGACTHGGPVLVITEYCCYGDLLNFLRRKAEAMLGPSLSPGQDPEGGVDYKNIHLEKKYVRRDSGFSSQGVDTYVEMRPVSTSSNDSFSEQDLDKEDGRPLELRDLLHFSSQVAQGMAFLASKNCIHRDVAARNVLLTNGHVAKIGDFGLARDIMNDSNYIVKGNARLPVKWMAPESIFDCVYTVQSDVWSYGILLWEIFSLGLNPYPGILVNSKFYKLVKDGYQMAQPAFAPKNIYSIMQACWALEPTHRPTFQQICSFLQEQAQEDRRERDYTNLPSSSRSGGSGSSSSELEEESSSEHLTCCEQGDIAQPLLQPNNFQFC
T1 sequence (P07333 20-972 limits assumed): as the sequence (P07333 20-972 L301S/Y969F limits assumed) above, with S282L, F950Y counted along it
Sequence of huCSF-1R-huFc chimera (soluble extracellular domain) (human) (P07333 20-517, change not shown): as the sequence (P07333 20-517 limits assumed) above

“Anti CSF-1R SC-02, clone 2-4A5 (Santa Cruz Biotechnology, US) (antibody)”: in assay [1], the percentage (%) of expected binding response stood at 42%. In assay [2], this molecule yielded a Kd of 2.73 nM, a koff of 0.00139 s⁻¹, a kon of 509000 M⁻¹ s⁻¹ and a t1/2 of 8.31 min. Further, in assay [3], the % inhibition 10 ug/ml antibody concentration, BeWo tumor cells in 3D culture is 40%; the % survival, NIH3T Cells expressing wtCSF-1R, 10 ug/ml antibody worked out at 62%; the IC50 CSF-1R Phosphorylation came to 0.412 mg/L; the IC50 [nM], inhibition of the survival of monocytes was determined as 2.4 nM. For the same molecule, the percentage (%) of expected binding response in assay [4] is -2%. Besides, the IC50 in [5] is 0.0309 mg/L. The percentage (%) of expected binding response in assay [6] was found to be 24%. The molecule further displayed a % survival, NIH3T Cells expressing Mutant CSF-1R, 10 ug/ml antibody in [7] of 66%.

B1: <CSF-1R>10A4.1G11 (antibody, V domains shown)
VH: EVQLQQFGTELVKPGASVKISCKASGYTFTDYNMDWVKQSHGKSLEWIGDINPNYDSTTYNQKFKGKATLTVDKSSSTAYMELRSLTSEDTAVYYCARWRFFAMDYWGQGTSVTVSS
VL: DIQMTQSSSSFSVSLGDRVTITCKASEDIYNRLAWYQQKPGNAPRLLISGASSLETGVPSRFSGSGSGKDYTLSITSLQTEDVATYYCQQYWSIPWTFGGGTKLEIKR
notes: Mouse monoclonal antibody from a hybridoma
As to B1, the IC50 in [8] was found to be 0.0634 mg/L. Further, the “IC50 [nM], inhibition of the survival of monocytes” value in [9] was 0.4 nM. In [10], this molecule displayed an equilibrium dissociation constant (Kd) of 1.77 nM, a koff of 0.0013 s⁻¹, a kon of 740000 M⁻¹ s⁻¹ and a t1/2 of 8.89 min. Also, the “IC50 CSF-1R Phosphorylation” value in [11] turned out to be 0.0154 mg/L. For the same molecule, the “% survival, NIH3T Cells expressing Mutant CSF-1R, 10 ug/ml antibody” value in [7] turned out to be 144%. For the same molecule, the “% survival, NIH3T Cells expressing wtCSF-1R, 10 ug/ml antibody” value in [12] stood at 3%.

B2: <CSF-1R>7H5.2G10 (antibody, V domains shown)
VH: EVQLQQSGPELVKPGASMKISCKASGYSFTDYTVNWVKQSHGENLDWIGLIIPYNGGTSYNHNFRGKATLTVDKSSSTAYMELLSLTSEDSAVYYCTRGGGDFTTGYTMDYWGHGTSVTVSS
VL: DIQMTQSSSYLSVSLGGTVTINCKASDHIHDWLAWYQQQPGNAPRLLISGATSLETGVPSRFSGGGSGKDYSLIITSLQTEDFATYYCQQYWSIPWTFGGGTKLEIKR
notes: Mouse monoclonal antibody from a hybridoma (NMRI mice); also called deposited antibody DSM ACC2922
B2 showed an IC50 in assay [8] of 0.0269 mg/L. Besides, in assay [9], the “IC50 [nM], inhibition of the survival of monocytes” value is 1 nM. In assay [10], this molecule came in with a Kd of 0.54 nM, a koff of 0.00038 s⁻¹, a kon of 700000 M⁻¹ s⁻¹ and a t1/2 of 30.4 min. In addition, the “IC50 CSF-1R Phosphorylation” value in assay [11] was 0.049 mg/L. The “% survival, NIH3T Cells expressing Mutant CSF-1R, 10 ug/ml antibody” value in assay [7] came to 112%. Also, the “% survival, NIH3T Cells expressing wtCSF-1R, 10 ug/ml antibody” value in assay [12] amounted to 2%.

B3: <CSF-1R>6G4.1C8 (antibody, V domains shown)
VH: EVQLQQSGPELVKPGASMKISCKASGYSFTDYTVNWVKQSHGENLDWIGLIIPYNGGTSYNHNFRGKATLTVDKSSSTAYMELLSLTSDDSAVYYCTRGGGDFTTGYTMDYWGQGTSVTVSS
VL: DIQMTQSSSYLSVSLGGTVTINCKASDHIHNWLAWYQQQPGNAPRLLISGATSLETGVPSRFSGGGSGKDYSLIITSLQTEDVATYYCQQYWSIPWTFGGGTKLEIKR
notes: as for B1
Turning to B3, the IC50 in [8] turned out to be 0.0212 mg/L. In addition, in [10], the affinity, expressed as Kd, was 0.52 nM; the koff was found to be 0.00029 s⁻¹; the kon was 570000 M⁻¹ s⁻¹; the t1/2 amounted to 39.4 min. Also, the “IC50 CSF-1R Phosphorylation” value in [11] worked out at 0.0826 mg/L. Besides, the “% survival, NIH3T Cells expressing Mutant CSF-1R, 10 ug/ml antibody” value in assay [7] was 91%. The “% survival, NIH3T Cells expressing wtCSF-1R, 10 ug/ml antibody” value in [12] came to 3%.

Source of the values: patent US20120329997A1 (Hoffmann-La Roche, published 2012).
